96 substances from the supplement of paper PMC12042874 can be followed below.

± gives the uncertainty stated by the source.

A short description of this data set: amyloid nucleation score (Sup35N fusion, yeast selection) (log enrichment); library NNK3; higher = more nucleation; inactive = no reads after selection. Summed up:
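After 24 hours of induction with 100 μM copper sulfate, psi-negative yeast expressing peptides of 20 random codons fused to Sup35N were grown for 7 days at 30°C on medium lacking adenine and uracil. Input and output plasmid inserts were sequenced with Illumina, and sequences with under 100 input reads were discarded. Scores for nucleation are the DiMSum log enrichment of output over input reads, centred on the mode score of non-aggregating sequences.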
Regarding TMVQECHYARSVSLYYNANA, the amyloid nucleation score result was “inactive”.
As to CTCFRGSTFRNAYN, the amyloid nucleation score result is “inactive”.
Take FHNCLGTNKNGVLLNGMVWN: the amyloid nucleation score result was “inactive”.
To TMFIVNTNIWSGVCISDNTW belongs 1.78 ± 0.067; to GRWMMWFIEFYNGRQESWGN, “inactive”.
As for STSVSLTWNPKKRLYYLLTI, the amyloid nucleation score result is “inactive”.
For YVDPRGVTVSWMSIYSRRAL the value was “inactive”; for GAGYADICPTAFHMPRWVFN, “inactive”.
On to GILNFAL, for which the amyloid nucleation score entry was “inactive”.
TTNDWHTFSGMVIKGWHIGK: the amyloid nucleation score result was “inactive”.
For CPCDTGVKQVTILEQGWVVM the value was 0.963 ± 0.14; for FVVRIKYTGSDLRLFRMVSF, “inactive”; for FDLPCSYRCSMTYCYGVNGI, 1.02 ± 0.18.
Turning to EICKSLKLCNIWNCRIMLRS, the amyloid nucleation score result was “inactive”.
For HNLVSSSSTCCRRHPCMAG the value was “inactive”.
For the substance SWMTTRKGGDVALHASLFRM, the amyloid nucleation score entry was “inactive”.
As for GLGPSCSQYKP, the amyloid nucleation score entry is “inactive”.
To FWSSLAVQRACKCMGGFCDL belongs “inactive”.
To AKTSRMNFKNNFMCQGCKWS belongs -0.604 ± 0.88; to CVQRVREYVGT, “inactive”; to FMYMMFERQLPMWDNELLH, -0.251 ± 0.66.
To FFCGFRKTAASHFLFLVKDW belongs “inactive”; to ETGDI, 1.64 ± 0.087.
Take RSHRIF: the amyloid nucleation score result is “inactive”.
For SPNWGLLGICLSTSRVQAL the value was 1.86 ± 0.082; for IRRLQINRAKHAILLLHYNW, “inactive”; for SCEFYDSVLWSYFKMAMFAL, -0.698 ± 0.8.
To PTAVVVGYHSYVTFRAVKCV belongs “inactive”.
For KQCGTIG, the amyloid nucleation score result is “inactive”.
To FIHMCISFSGYFYDYCFNFN belongs “inactive”; to VHREVGLDFYDNVTCTMFHI, “inactive”; to LFEDKCGNPWRNY, -0.126 ± 0.88.
For GVCRVVRSNHCMLWFRLDSS the value was “inactive”; for RLVYPSVSSLKPIRSCWLG, “inactive”.
Regarding SRRTIVNQSSF, the amyloid nucleation score entry was “inactive”.
For YDFYTIVNIRTLHPRLIFFM the value was -0.195 ± 0.9; for LSVELCTCGVRPQATYYPQG, 1.31 ± 0.13; for RRWQVCVAGQDSEGTVKVML, 0.108 ± 0.56.
For NKFKHESNTNYIPSRQYKVW the value was “inactive”; for CCGQIADSFLPKSSRGEVRN, “inactive”; for RTRKQRCHRCVWMLLGDYQR, “inactive”.
To NCHSFVYYSMLGVSLSISGN belongs 2.29 ± 0.059; to SAYAGYKRLGASEVILLSPY, “inactive”; to TSVRELNLMPCDENSTICDI, “inactive”.
As for SLYGKDYTKTVFSDAVFVCF, the amyloid nucleation score result was “inactive”.
For HRRLGRTFFCATLGLHLCDF the value was “inactive”.
To DPYFVG belongs “inactive”.
For TVRVYIHIYHIGFLGPMRSE, the amyloid nucleation score worked out at 0.889 ± 0.22.
For SRVNCLARLRSPARLMPMVR the value was “inactive”; for NLLSDSVDMYINAGVDILLA, “inactive”.
For LSSIAFCFN, the amyloid nucleation score turned out to be 1.15 ± 0.15.
For ILMRTGFILCATST the value was “inactive”; for KLEMYVARSCDCAYDRCWGR, “inactive”; for AESEVDKCLDRGYGAEKTCT, “inactive”.
Consider YHAYRTGE, for which the amyloid nucleation score entry was “inactive”.
For the substance FVDLSSIDYVF, the amyloid nucleation score result is “inactive”.
Regarding GSCWLDVCQDCKSFSILS, the amyloid nucleation score entry was “inactive”.
For IRTQYQEREASILYM the value was “inactive”.
In the case of GVLEAFLTDIIPMYGYVRVA, the amyloid nucleation score entry was “inactive”.
For the substance LVVDYLEFCTFLVDVENIWT, the amyloid nucleation score result is “inactive”.
To DSFVLYALCNYWCSFCIKGA belongs 1.8 ± 0.09; to YLMIIDRPKSHNLPYLGMLH, “inactive”.
For SDWIRNG, the amyloid nucleation score result was “inactive”.
ALCCVRPFGNEDKREVMYSN returned an amyloid nucleation score of 0.604 ± 0.24.
For HGKSYILVWCMRHSRTECVR the value was “inactive”; for RPVVWYISRTSVVLDCAWGS, “inactive”; for RYKRTGIWCFECNRVLVEVF, “inactive”.
Regarding LLKHMSLFVLRSSNR, the amyloid nucleation score entry was “inactive”.
For PSFFRKLFLPFASYLTMCGE the value was “inactive”; for DFKDCDICTTPNDKVESGKV, “inactive”.
For KWDSKFRYLADGHNQLPC the value was 0.605 ± 0.38; for DRSDNRSGYFMINVVYNDGE, 0.724 ± 0.18; for HLELDFNFSVLHTYCYFLAP, “inactive”.
On to GGCDL, for which the amyloid nucleation score entry was “inactive”.
For the substance MGNAEEIAIHDSSAWVVVAR, the amyloid nucleation score result is “inactive”.
To SLNRWLSKYYLHTA belongs “inactive”; to RTFFYWIKLAINFSNVCRGF, “inactive”.
Turning to CECTRVCRVCPSVSMHAIK, the amyloid nucleation score result was “inactive”.
As to RSSSPIRVHTINGDVYTDVV, the amyloid nucleation score entry is “inactive”.
VLRKLYLSPDSGVNYCGDPV: the amyloid nucleation score entry is “inactive”.
For SWTGCKYIQKYRCRRWCNNF the value was “inactive”; for TWRNLILRFGCGGFSKTTFK, “inactive”; for ALMRVSSLCHLSGKVCLTLA, “inactive”.
Regarding LFCSYNRRGAHLAGCAR, the amyloid nucleation score result is “inactive”.
For AYNLSLNYDGHSSYWYFHTT the value was -0.134 ± 0.38; for GNMQVRYRIESANNRMGQRE, 0.261 ± 0.47; for RRMLNAVEMSYRVGKFSFCW, “inactive”.
Consider RYTFGTAIERVLQVILNEMT, for which the amyloid nucleation score result is “inactive”.
RSMHLTWYW: the amyloid nucleation score amounted to 1.4 ± 0.11.
LAVVDCGYM: the amyloid nucleation score entry is “inactive”.
Take DTRVGP: the amyloid nucleation score result was “inactive”.
On to VTCWMVAVELKKIHYQCIES, for which the amyloid nucleation score entry was “inactive”.
For VMMYFQFMPLKPSRD the value was 1.25 ± 0.12.
For HDNQFYVMLWAISAAYRLAS the value was “inactive”; for MSGLLCAEIWSRCPASFIGD, “inactive”.
For LCIFKVLF the value was 0.969 ± 0.16.
